In patent US20190105403A1 (STCUBE, published 2019):

Experiments:
[1] = biological target: T1, human PD-L1 4NQ (N35Q/N192Q/N200Q/N219Q), fully unglycosylated variant, expressed on BT549 cells (human, UniProt Q9NZQ7 19-290); test: flow cytometry on BT549 cells overexpressing PD-L1 4NQ (mixed with WT cells), FITC secondary antibody
T1 construct: In the Western blots the protein was in cell lysate; also called 4NQ PD-L1; unglycosylated PD-L1 4NQ mutant
T1 chain: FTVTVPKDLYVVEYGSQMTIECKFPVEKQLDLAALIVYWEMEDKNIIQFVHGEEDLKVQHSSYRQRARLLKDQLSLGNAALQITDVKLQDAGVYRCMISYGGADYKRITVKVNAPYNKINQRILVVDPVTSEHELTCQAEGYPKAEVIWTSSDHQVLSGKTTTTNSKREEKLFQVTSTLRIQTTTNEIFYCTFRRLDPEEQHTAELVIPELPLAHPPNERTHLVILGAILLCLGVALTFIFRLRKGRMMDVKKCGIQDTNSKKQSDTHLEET

[2] = biological target: T2, human PD-L1 wild type (glycosylated), expressed on cells (human, UniProt Q9NZQ7 19-290, N-glycosylated at N35, N192, N200 and N219); test: flow cytometry on BT549 cells overexpressing PD-L1 WT (biotin labeled, mixed with 4NQ cells), FITC secondary antibody
T2 construct: Endogenous on NCI-H226, A431 and MDA-MB231 cells and transfected into 4T1 cells in the functional assays; In the Western blots the protein was in cell lysate; also called PD-L1 WT; WT PD-L1
T2 sequence (Q9NZQ7 19-290): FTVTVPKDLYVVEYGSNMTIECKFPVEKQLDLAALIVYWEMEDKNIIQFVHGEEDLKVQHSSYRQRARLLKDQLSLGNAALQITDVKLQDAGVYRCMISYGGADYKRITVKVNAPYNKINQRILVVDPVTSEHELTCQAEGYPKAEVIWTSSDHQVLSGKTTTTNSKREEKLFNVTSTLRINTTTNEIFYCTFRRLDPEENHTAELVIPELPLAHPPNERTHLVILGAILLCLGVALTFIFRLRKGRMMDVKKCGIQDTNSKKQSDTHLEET

Row | Binder | MFI [1] | MFI [2]
1 | STM115 MAb (antibody, V domains shown) VH: EVMLVESGGALVEPGGSLKLSCVASGFTFSNYAMSWVRQTPERRLEWVASITNGGTYTYYPDSVKGRFTISRDNARNTLYLQMSSLRSEDTAMYFCARPLHYYGGSHFDYWGQGTTLTVSS VL: EIVLTQSPALMAASPGEKVTITCSVSSSISSNTLHWYQQKSEISPKPWIYGTSNLASGVPVRFSGSGSGTSYSLTISSMEAEDAATYYCQQWSSYPLTFGGGTKLEIK | 21.3 | 51.1
2 | STM108 MAb (antibody, V domains shown) VH: EVMLVESGGALVKPGGSLKLSCAASGFSLSNYVMSWVRQTPEKRLEWVATISSGGRYIYYTDSVKGRFTISRDNARNTLYLQMSSLRSEDTAMYYCARDGSTLYYFDYWGQGTTLTVSS VL: QTVLTQSPAIMSASPGEKVTMTCSASSSVDYMYWYQQKPGSSPRLLIYDTSNLASGVPVRFSGSGSGTSYSLTISRMEAEDAATYYCQQWSSSPPITFGTGTKVELK | 27.6 | 117
3 | STM073 MAb (antibody, V domains shown) VH: EVQLVESGGALVKPGGSLKLSCAASGFTFSNSAMSWVRQTPEKRLEWVATISSAGSYTYYPDSVKGRFTISRDNAKNTLYLQMSSLRSEDTALYYCTRHYDYYFDYWGQGATLTVSS VL: QIVLTQSPAIMSASPGEKVTLTCSASSSVSYMHWYQQKPGSSPRLVIYDTSNLASGVPVRFSGSGSGTSYSLTVSRMEAEDAATYYCQQWSDHPLTFGAGTKLELK | 12.2 | 63.9
4 | STM004 MAb (antibody, V domains shown) VH: QVQLQQSDAELVKPGASVKISCKASGYTFSDHAIHWVKQRPEQGLEWIGCISPGSGDITYNEKFKGKATLTADKSSSTAYMQLNSLTSEDSAVYFCKRWGLDYWGQGTTLTVSS VL: DIVLTQSPASLAVSLGQRATISCRASESVEFYGTTLMQWYQQKPGQPPRLLIYAASNVESGVPARFSGSGSGTDFSLNIHPVEDDDIAMYFCQQSRKVPYTFGGGTKLEIK | 8.7 | 42.5
